Assay results: the DeepSol protein solubility set

experiment: soluble on expression in E. coli; label from the status in PepcDB or PDB records

| Sequence | soluble on expression in E. coli |
| --- | --- |
| MGSDKIHHHHHHMQNVNSAFEYCDQLVKDFERVIEHPIVSKSSVYYTGIDLGTAYIVLAVLDENYQPVAGAYRFANVVKDGMVVDYIGAIRIVKELKQELEERLDTELVYAAAALPPGTMALDSGVIKHVVQGAGFEITNLLDEPTAANAVLKIKDGAIVDIGGGTTGITILKDGEVIYVADEPTGGTHFSLVIAGAYKMSFDEAENYKQNPKNHRELTPVVGPVVEKVSSILNRHLRDYQVETIYLVGGTCCLEGIETIIARQTGIPTYKPQNPMFVTPLGIALNCTQEIL | not soluble |
| VQQLSLFGSIGDDGYDLLISTLTTISGNPPLLYNSLCTVWKPNPSYDVENVNSRNQLVEPNRIKLSKEVPFSYLIDETMMDKPLNFRILKSFTNDKIPLNYAMTRNILHNTVPQVTNFNSTNEDQNNSKHTEDTVNESRNSDDIIDVDMDASPAPSNESCSPWSLQISDIPAAGNNRSVSMQTIAETIILSSAGKNSSVSSLMNGLGYVFEFQYLTIGVKFFMKHGLILELQKIWQIEEAGNSQITSGGFLLKAYINVSRGTDIDRINYTETVLMNLKKELQGYIELSVPDRQSMDSRVAHGNILIAAALEHHHHHH | soluble |
| MLSMCNKYPDFDDEERVRRVDDDFRDVITVFDAPFEGKSPSPAVIVFDELVDSDGSSKYLNFKMEQSYEKVDEIPEKIDAERIRYAIHLGSHSQKNVLQIFQSAYSDGYTEEDKNGKVPVGGKVKCAETETGFRTKINCENVVTAVNEYMDSNREKFGELRIETLNKAERNLDGYIYFSFLKQKPCRNLFIRIPPLE | not soluble |
| MSLRVRTPSDDPVASAQIELIKQRINNIELFQNNRQAADSALRLEEGILSNAVNSLHRLREIQIQAGNPSLSEEDRKTLAVEAQALLNQLLDYANTKDSNGSYMFSGSKSLTQPVSLNLSGQYVYNGDSTQRFQAVTTSLLVAVNDTGDNVFMRIPSGNGRFAIRETLTPNTGTASVSSGSVTNEAAFVPDNYTMTFALNSQGNLVVMVSGTLSGNVIPPSGLPDDAPLYQEGSAIGFNGMEMVVSGLPKAGDSFSISPAKNESIFSTVQRMINNLNKPYTSSVEKAATQTENNQLLAQIDSALGHILSVQSDLGARLNQLETAEKANNDYLDISAATLKKLREIDPVAVATELNLQLVNLQAAQLSFTRIQGLSLFNFLEGHHHHHH | soluble |
| MGSDKIHHHHHHMENTSYIALSRQTALWRQLDVVSNNLANMNTNGYQAEQTLFSEYLMNTRDSHFRLPEKLAYTQDAGTYRDLTAGPLEHTGNPLDLAINGEGYFEVEDGAGPAYTRGGRFTLDAEGKVVTADGRPLMTDAGTPLVIAPNEGEVTISATGTVSTENGPVGKLRLVSFEDEQKLRRIGGGLFDSGDQQANPITEPRIEQGMIEKSNVNPVVEMTRMIQVQRSYEAANKLIESENDRQLNAYAVLSGTK | not soluble |
| MSVDKYGKVYLIGAGPGNPNYLTKKAERLIREADVILYDRLVNPLILQYANLTTEIIDVGKKPYAKHIQQEKINECIVEAARRYNKVVRLKGGDPAIFGRVQEEVDTLNNFNIAFEIVPGVTSASAAVATMQTGLTMRAVAKSVTFSTGHFKDSEENEVDVNALVNGGTLAIYMGVKRLGKIIAQIQQYTDIDYPIAIVFQASCFNEFVVKGRLSNIVGKLEHYAIEAKPGICIIGEVVGYTENVSTTSNPTQQFYVVSGSRHDALMLCEHLYDEGYGCLLNPNDTSNGTYHSSQYDYYDAFIKQQENVTYISTDRADANTVLCH | not soluble |
| MTGGFTPDSGRYHLYISHACPWAHRTMIFRTLKGLEDHITISAVHPDMLGEGWTFEPDDNGATGDTLYNSAFARDIYTRADPRFTGRVTVPILWDKQRETIVSNESSEIIRMFNAAFNGLTGNSDDYWPEPLRDAIAPVNERIYDTFNNGVYKAGFATTQQAYDAAIVPLFDTLDWLEERLSHNRYLMGDQLTEADWRLFTTLVRFDPVYHLHFKCNRKRIVDYPNLWGYTRELYQTPGVADTVNFDHIVRHYHYSHETINPNRIIPINPVLDFHRPHGRGLEHHHHHH | not soluble |
| MGSDKIHHHHHHMDKLDFRSQDFSQTGKAMYELACELFPIPRSITGQGFRDSLEILNKTLGGGILKFHSIKSGTKVFDWIVPDEWNVKEAYIITPKGEKICDFKKHNLHLLNYSEAIDQEIELEELQDHLYSIEEMPDAIPYVTSYYKRRWGFCLTHNERKKLKKGKYKVYIDAKHDENGVLDYADFILPSTQNSKDEILISTYLCHPSMANNELSGPVVSIFLAKWLLGLKERRYNYRFVIIPETIGSIVYLSKHLECLKKHVKAGFVLSCLGDDHTYSLIHTVKENTLSDKVALHTLKNKENFKAFSFLDRGSDERQYNAPLVNLGIVGVCRTRYGDYDGYHNSKDDLNFISEKGLMGGLQSMQEMILNLEINAVYENTIVCEPNLGKRGLYHTLSTTNDIPLACNFLAYCDGENDIIDIANILNMQAYEFKELLEKIKFYGLVK | not soluble |
